Values quoted from earlier work, collected in patent publication US12090208B2, “Peptide drug improvement using vitamin B12 and Haptocorrin binding substrate conjugates” (SYRACUSE UNIVERSITY, priority 2017, dated 2024).

Details: in vivo

B1: haptocorrin: serum B12 binding and transport protein (protein, UniProt P20061 24-433, looked up)
Transcobalamin-1: EICEVSEENYIRLKPLLNTMIQSNYNRGTSAVNVVLSLKLVGIQIQTLMQKMIQQIKYNVKSRLSDVSSGELALIILALGVCRNAEENLIYDYHLIDKLENKFQAEIENMEAHNGTPLTNYYQLSLDVLALCLFNGNYSTAEVVNHFTPENKNYYFGSQFSVDTGAMAVLALTCVKKSLINGQIKADEGSLKNISIYTKSLVEKILSEKKENGLIGNTFSTGEAMQALFVSSDYYNENDWNCQQTLNTVLTEISQGAFSNPNAAAQVLPALMGKTFLDINKDSSCVSASGNFNISADEPITVTPPDSQSYISVNYSVRINETYFTNVTVLNGSVFLSVMEKAQKMNDTIFGFTMEERSWGPYITCIQGLCANNNDRTYWELLSGGEPLSQGAGSYVVRNGENLEVRWSKY
Q: With B1 as the molecule, how does the half-life in blood read?
A: approximately 10 hours
